Measurements from US20030232051A1.

What was measured:
Experiment in all cases: cell-based or functional assay
[1] = target: 2B4 (CD244) (on human NK cells) (human) (UniProt Q9BZW8)
[2] = target: CD16 (on human NK cells) (human) (UniProt P08637)
[3] = target: HA-2DL4 (epitope-tagged 2DL4) (human) (UniProt Q99706)
[4] = target: HA-2DL4 (RY-GT) mutant (human) (UniProt Q99706)
Chain of HA-2DL4 (RY-GT) mutant (human) (Q99706 24-377, change not shown): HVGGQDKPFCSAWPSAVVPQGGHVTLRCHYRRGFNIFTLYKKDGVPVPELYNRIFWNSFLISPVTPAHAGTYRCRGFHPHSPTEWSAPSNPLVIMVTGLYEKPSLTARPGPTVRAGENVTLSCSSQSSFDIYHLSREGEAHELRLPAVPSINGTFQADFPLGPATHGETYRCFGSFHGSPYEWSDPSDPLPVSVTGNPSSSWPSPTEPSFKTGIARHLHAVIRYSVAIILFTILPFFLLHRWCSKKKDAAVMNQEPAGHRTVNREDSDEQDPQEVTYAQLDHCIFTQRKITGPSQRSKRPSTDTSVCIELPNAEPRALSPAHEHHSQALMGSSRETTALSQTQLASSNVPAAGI

Chain of 2B4 (CD244) (on human NK cells) (human) (Q9BZW8 22-370): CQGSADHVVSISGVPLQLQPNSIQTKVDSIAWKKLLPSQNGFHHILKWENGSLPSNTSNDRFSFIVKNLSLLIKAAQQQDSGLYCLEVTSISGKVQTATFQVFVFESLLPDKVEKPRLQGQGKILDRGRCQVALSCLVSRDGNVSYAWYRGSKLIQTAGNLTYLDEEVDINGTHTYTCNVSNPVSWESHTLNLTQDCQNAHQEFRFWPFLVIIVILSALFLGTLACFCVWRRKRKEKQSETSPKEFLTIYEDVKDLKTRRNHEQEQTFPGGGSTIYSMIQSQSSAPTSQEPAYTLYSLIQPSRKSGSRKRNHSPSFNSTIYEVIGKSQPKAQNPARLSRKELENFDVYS
Chain of CD16 (on human NK cells) (human) (P08637 17-254): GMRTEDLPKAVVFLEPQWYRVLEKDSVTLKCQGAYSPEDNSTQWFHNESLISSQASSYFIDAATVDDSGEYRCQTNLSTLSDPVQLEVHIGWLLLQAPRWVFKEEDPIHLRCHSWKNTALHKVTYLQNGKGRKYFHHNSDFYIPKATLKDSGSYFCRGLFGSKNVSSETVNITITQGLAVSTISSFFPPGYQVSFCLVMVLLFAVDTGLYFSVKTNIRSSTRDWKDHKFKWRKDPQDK
Chain of HA-2DL4 (epitope-tagged 2DL4) (human) (Q99706 24-377): as the sequence (Q99706 24-377, change not shown) above

“anti-2B4 mAb C1.7 (IgG1; Beckman Coulter) (antibody)” showed an increase in IFN-gamma release by IL-2-activated NK cells with P815 cells over that induced by control IgG (fold over control IgG) [1] of 1.55, an increase in IFN-gamma release by resting NK cells with P815 cells over control IgG (fold over control IgG) [1] of 2.1 and a ratio of lysis of P815 cells by IL-2-activated NK cells over that obtained with control Ig (fold over control Ig) [1] of 3.3. The ratio of lysis of P815 cells by resting NK cells over that obtained with control Ig (fold over control Ig) [1] was 3.1.

“anti-CD16 mAb 3G8 (IgG1; Medarex) (antibody)” was tested, and the increase in IFN-gamma release by IL-2-activated NK cells with P815 cells over that induced by control IgG (fold over control IgG) [2] was 20.1, the increase in IFN-gamma release by resting NK cells with P815 cells over control IgG (fold over control IgG) [2] was 4.2 and the ratio of lysis of P815 cells by IL-2-activated NK cells over that obtained with control Ig (fold over control Ig) [2] was 4.8. It also gave a ratio of lysis of P815 cells by resting NK cells over that obtained with control Ig (fold over control Ig) [2] of 4.9.

In the case of “anti-HA mAb 16B12 (IgG1; Covance) (antibody)”, the fold activation of lysis of P815 cells by vaccinia-infected IL-2-activated NK cells (fold over control Ig) [3] is reported as 2.9 and the fold activation of lysis of P815 cells by vaccinia-infected IL-2-activated NK cells (fold over control Ig) [4] is reported as 0.56.
